In one test the target is T1, G9a and GLP (Homo sapiens, UniProt Q96KQ7+Q9H9B1).
T1 sequence (Q96KQ7 2-1210 limits assumed): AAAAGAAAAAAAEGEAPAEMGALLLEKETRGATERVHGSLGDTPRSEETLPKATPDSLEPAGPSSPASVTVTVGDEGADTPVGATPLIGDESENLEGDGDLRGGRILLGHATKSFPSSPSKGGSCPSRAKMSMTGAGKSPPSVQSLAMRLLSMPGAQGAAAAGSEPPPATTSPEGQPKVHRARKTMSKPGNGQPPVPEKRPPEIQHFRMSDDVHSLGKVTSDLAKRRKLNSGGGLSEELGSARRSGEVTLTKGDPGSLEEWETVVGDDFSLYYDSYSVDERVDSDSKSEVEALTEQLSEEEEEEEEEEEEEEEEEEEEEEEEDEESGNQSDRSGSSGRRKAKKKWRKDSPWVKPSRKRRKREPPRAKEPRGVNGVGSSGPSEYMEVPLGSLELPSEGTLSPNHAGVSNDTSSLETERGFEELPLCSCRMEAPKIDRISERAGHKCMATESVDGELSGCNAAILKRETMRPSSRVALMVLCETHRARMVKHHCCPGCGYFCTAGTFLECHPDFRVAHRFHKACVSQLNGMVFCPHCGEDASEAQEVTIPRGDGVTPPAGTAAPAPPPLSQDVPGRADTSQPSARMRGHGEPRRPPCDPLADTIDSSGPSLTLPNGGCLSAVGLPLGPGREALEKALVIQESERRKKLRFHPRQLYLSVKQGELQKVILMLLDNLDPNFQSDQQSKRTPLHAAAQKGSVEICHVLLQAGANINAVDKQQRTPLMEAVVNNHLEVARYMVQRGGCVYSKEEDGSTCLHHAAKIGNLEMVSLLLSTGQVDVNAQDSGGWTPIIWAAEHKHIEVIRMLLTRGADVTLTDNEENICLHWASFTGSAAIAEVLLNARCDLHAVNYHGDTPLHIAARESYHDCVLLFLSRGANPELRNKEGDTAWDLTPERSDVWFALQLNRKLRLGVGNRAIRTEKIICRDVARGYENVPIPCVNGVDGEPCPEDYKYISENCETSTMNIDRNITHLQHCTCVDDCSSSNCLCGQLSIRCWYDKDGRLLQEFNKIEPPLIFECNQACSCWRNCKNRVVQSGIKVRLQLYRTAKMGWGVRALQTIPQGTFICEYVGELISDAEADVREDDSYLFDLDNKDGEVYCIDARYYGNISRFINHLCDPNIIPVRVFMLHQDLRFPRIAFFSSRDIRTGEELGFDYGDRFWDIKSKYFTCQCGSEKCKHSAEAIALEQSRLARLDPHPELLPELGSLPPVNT
T1 sequence (Q9H9B1 2-1298 limits assumed): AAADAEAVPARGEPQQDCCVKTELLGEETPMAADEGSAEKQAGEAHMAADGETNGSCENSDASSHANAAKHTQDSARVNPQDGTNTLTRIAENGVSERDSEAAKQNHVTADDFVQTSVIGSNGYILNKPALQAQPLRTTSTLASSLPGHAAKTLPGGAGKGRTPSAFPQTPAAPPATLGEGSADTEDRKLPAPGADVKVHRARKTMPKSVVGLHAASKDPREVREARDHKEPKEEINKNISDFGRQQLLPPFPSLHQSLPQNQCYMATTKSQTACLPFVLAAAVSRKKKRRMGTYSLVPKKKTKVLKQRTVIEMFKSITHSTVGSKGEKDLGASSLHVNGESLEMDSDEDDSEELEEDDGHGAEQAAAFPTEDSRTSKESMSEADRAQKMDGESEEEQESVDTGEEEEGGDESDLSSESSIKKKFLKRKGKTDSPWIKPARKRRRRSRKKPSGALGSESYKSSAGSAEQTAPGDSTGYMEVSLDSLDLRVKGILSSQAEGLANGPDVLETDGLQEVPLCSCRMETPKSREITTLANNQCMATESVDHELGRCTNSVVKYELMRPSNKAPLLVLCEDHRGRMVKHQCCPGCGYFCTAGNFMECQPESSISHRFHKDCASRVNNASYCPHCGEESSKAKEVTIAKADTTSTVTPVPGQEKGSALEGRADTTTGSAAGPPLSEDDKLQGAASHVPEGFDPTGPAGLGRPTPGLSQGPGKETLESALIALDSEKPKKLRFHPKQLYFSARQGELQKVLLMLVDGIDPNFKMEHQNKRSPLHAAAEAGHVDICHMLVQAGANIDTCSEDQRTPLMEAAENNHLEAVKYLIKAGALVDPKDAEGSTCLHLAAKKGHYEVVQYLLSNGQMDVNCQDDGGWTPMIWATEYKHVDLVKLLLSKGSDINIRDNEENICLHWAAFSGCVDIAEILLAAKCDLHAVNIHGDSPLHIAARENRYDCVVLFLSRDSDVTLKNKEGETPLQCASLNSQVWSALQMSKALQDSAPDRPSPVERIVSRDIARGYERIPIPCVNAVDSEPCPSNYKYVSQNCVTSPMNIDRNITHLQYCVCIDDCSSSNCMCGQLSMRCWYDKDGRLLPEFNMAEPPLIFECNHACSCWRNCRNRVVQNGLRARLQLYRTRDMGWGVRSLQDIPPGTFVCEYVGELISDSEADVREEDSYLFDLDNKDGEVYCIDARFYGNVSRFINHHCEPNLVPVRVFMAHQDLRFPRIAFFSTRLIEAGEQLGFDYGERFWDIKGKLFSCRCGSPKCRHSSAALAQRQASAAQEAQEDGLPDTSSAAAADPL
Put plainly: Triple SILAC pull-down after UNC0638 treatment of 293T cells, DMSO/UNC0638 ratio of protein captured by 3×MBT.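 On all read-outs here: mass spectrometry (Q-Exactive) SILAC quantitation, DMSO/UNC0638 ratio computed after subtracting 3×MBTD355N mutant pull-down background, only proteins with at least twofold 3×MBT over mutant signal considered.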 Type of test: cell-based. Also on record: cells were treated for 24 hours with UNC0638 at 2.5 μM or DMSO vehicle control; endogenous in cells; host or cells: HEK 293T. The conditions noted are these: for Protein Ratios DMSO/UNC0638: SILAC ratio of protein captured by 3xMBT, 293T cells treated 24 hours with UNC0638 at 2.5 μM or DMSO.

A further test deals with 3×MBT domain of L3MBTL1. Put plainly: Triple SILAC pull-down, 3xMBT/3xMBTD355N ratio (cytoplasmic, nuclear and chromatin fractions of 293T cells).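 On all read-outs here: proteins quantified with MaxQuant, requiring at least two unique peptides and quantification in both label directions, normalized to the mean of proteins from a digested loading control.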 Type of test: binding, human. The conditions noted are these: SILAC ratio; for Protein Ratios 3xMBT/D355N: pull-down by 3xMBT vs 3xMBTD355N, 293T cells.

B1: Peroxiredoxin-2 (protein, UniProt P32119 2-198, looked up)
Peroxiredoxin-2: ASGNARIGKPAPDFKATAVVDGAFKEVKLSDYKGKYVVLFFYPLDFTFVCPTEIIAFSNRAEDFRKLGCEVLGVSVDSQFTHLAWINTPRKEGGLGPLNIPLLADVTRRLSEDYGVLKTDEGIAYRGLFIIDGKGVLRQITVNDLPVGRSVDEALRLVQAFQYTDEHGEVCPAGWKPGSDTIKPNVDDSKEYFSKHN
Consider B1, for which, in the test with G9a and GLP, the “Protein Ratios DMSO/UNC0638” value was 2.3. Also, in the test on 3×MBT domain of L3MBTL1, the “Protein Ratios 3xMBT/D355N” value is 8.6.

B2: Metastasis-associated protein 1 (protein)
chain: MAANMYRVGDYVYFENSSSNPYLIRRIEELNKTANGNVEAKVVCFYRRRDISSTLIALADKHATLSVCYKAGPGADNGEEGEIEEEMENPEMVDLPEKLKHQLRHRELFLSRQLESLPATHIRGKCSVTLLNETESLKSYLEREDFFFYSLVYDPQQKTLLADKGEIRVGNRYQADITDLLKEGEEDGRDQSRLETQVWEAHNPLTDKQIDQFLVVARSVGTFARALDCSSSVRQPSLHMSAAAASRDITLFHAMDTLHKNIYDISKAISALVPQGGPVLCRDEMEEWSASEANLFEEALEKYGKDFTDIQQDFLPWKSLTSIIEYYYMWKTTDRYVQQKRLKAAEAESKLKQVYIPNYNKPNPNQISVNNVKAGVVNGTGAPGQSPGAGRACESCYTTQSYQWYSWGPPNMQCRLCASCWTYWKKYGGLKMPTRLDGERPGPNRSNMSPHGLPARSSGSPKFAMKTRQAFYLHTTKLTRIARRLCREILRPWHAARHPYLPINSAAIKAECTARLPEASQSPLVLKQAVRKPLEAVLRYLETHPRPPKPDPVKSVSSVLSSLTPAKVAPVINNGSPTILGKRSYEQHNGVDGNMKKRLLMPSRGLANHGQARHMGPSRNLLLNGKSYPTKVRLIRGGSLPPVKRRRMNWIDAPDDVFYMATEETRKIRKLLSSSETKRAARRPYKPIALRQSQALPPRPPPPAPVNDEPIVIED
Take B2: in the test with G9a and GLP (SILAC ratio DMSO/UNC0638 of protein pulled down with 3xMBT, UNC0638 in heavy SILAC media), the “Relative to UNC0638 UNC Heavy” value is given as 0.36 log base 2. For the same molecule, the “Relative to UNC0638 UNC Light” value with G9a and GLP (SILAC ratio DMSO/UNC0638 of protein pulled down with 3xMBT, UNC0638 in light SILAC media) is reported as 0.56 log base 2. The “Protein Ratios DMSO/UNC0638” value in the test with G9a and GLP was 1.4. Moreover, the “Relative to UNC0638 Average” value in the test with G9a and GLP (average of UNC Light and UNC Heavy experiments) is 0.46 log base 2. For the same molecule, in the test with G9a and GLP (reduced association with 3xMBT after UNC0638 treatment), the “Candidate G9a/GLP target” value is “✓”. The “3xMBT/D355N UNC Heavy” value with 3×MBT domain of L3MBTL1 (pull-down 3xMBT vs 3xMBTD355N, experiment with UNC0638 in heavy SILAC media) is on record as 0.90 log base 2. The “3xMBT/D355N UNC Light” value with 3×MBT domain of L3MBTL1 (pull-down 3xMBT vs 3xMBTD355N, experiment with UNC0638 in light SILAC media) was 4.28 log base 2. Moreover, the “Protein Ratios 3xMBT/D355N” value in the test with 3×MBT domain of L3MBTL1 was determined as 6.0.

B3: Cleavage and polyadenylation specificity factor subunit 2 (protein, UniProt Q9P2I0 1-782, looked up)
Cleavage and polyadenylation …: MTSIIKLTTLSGVQEESALCYLLQVDEFRFLLDCGWDEHFSMDIIDSLRKHVHQIDAVLLSHPDPLHLGALPYAVGKLGLNCAIYATIPVYKMGQMFMYDLYQSRHNTEDFTLFTLDDVDAAFDKIQQLKFSQIVNLKGKGHGLSITPLPAGHMIGGTIWKIVKDGEEEIVYAVDFNHKREIHLNGCSLEMLSRPSLLITDSFNATYVQPRRKQRDEQLLTNVLETLRGDGNVLIAVDTAGRVLELAQLLDQIWRTKDAGLGVYSLALLNNVSYNVVEFSKSQVEWMSDKLMRCFEDKRNNPFQFRHLSLCHGLSDLARVPSPKVVLASQPDLECGFSRDLFIQWCQDPKNSIILTYRTTPGTLARFLIDNPSEKITEIELRKRVKLEGKELEEYLEKEKLKKEAAKKLEQSKEADIDSSDESDIEEDIDQPSAHKTKHDLMMKGEGSRKGSFFKQAKKSYPMFPAPEERIKWDEYGEIIKPEDFLVPELQATEEEKSKLESGLTNGDEPMDQDLSDVPTKCISTTESIEIKARVTYIDYEGRSDGDSIKKIINQMKPRQLIIVHGPPEASQDLAECCRAFGGKDIKVYMPKLHETVDATSETHIYQVRLKDSLVSSLQFCKAKDAELAWIDGVLDMRVSKVDTGVILEEGELKDDGEDSEMQVEAPSDSSVIAQQKAMKSLFGDDEKETGEESEIIPTLEPLPPHEVPGHQSVFMNEPRLSDFKQVLLREGIQAEFVGGVLVCNNQVAVRRTETGRIGLEGCLCQDFYRIRDLLYEQYAIV
Consider B3, for which the “Protein Ratios DMSO/UNC0638” value with G9a and GLP stood at 3.1. Further, the “Protein Ratios 3xMBT/D355N” value in the test on 3×MBT domain of L3MBTL1 is on record as 8.1.
